Measured values taken from patent US20120316071A1 (published 2012).
Positions count from the first letter of the chain named. Names may count otherwise.

B1: Fab VH1-46_IGHD6-6*01_IGHJ1*01 S102A/S103P/S104F/H111F (APFF) & L6_IGKJ1*01 S28A (Fab, V domains shown)
VH: QVQLVQSGAEVKKPGASVKVSCKASGYTFTSYYMHWVRQAPGQGLEWMGIINPSGGSTSYAQKFQGRVTMTRDTSTSTVYMELSSLRSEDTAVYYCAREEYAPFSAEYFQFWGQGTLVTVSS
VL: EIVLTQSPATLSLSPGERATLSCRASQAVSSYLAWYQQKPGQAPRLLIYDASNRATGIPARFSGSGSGTDFTLTISSLEPEDFAVYYCQQRSNWPPWTFGQGTKVEIKR
notes: Fab expressed in E. coli: VH joined to CH1 (Plasmid A, His6 and Flag tags), VL joined to kappa CL (Plasmid C); also called APFF S28A
B2: Fab VH1-46_IGHD6-6*01_IGHJ1*01 S102A/S103P/S104F/H111F (APFF) & L6_IGKJ1*01 S28E (Fab, V domains shown)
VH: B1 VH
VL: B1 VL with A28E
notes: Fab expressed in E. coli: VH joined to CH1 (Plasmid A, His6 and Flag tags), VL joined to kappa CL (Plasmid C); also called APFF S28E
B3: Fab VH1-46_IGHD6-6*01_IGHJ1*01 S102A/S103P/S104F/H111F (APFF) & L6_IGKJ1*01 S28H (Fab, V domains shown)
VH: B1 VH
VL: B1 VL with A28H
notes: Fab expressed in E. coli: VH joined to CH1 (Plasmid A, His6 and Flag tags), VL joined to kappa CL (Plasmid C); also called APFF S28H
B4: Fab VH1-46_IGHD6-6*01_IGHJ1*01 S102A/S103P/S104F/H111F (APFF) & L6_IGKJ1*01 S28I (Fab, V domains shown)
VH: B1 VH
VL: B1 VL with A28I
notes: Fab expressed in E. coli: VH joined to CH1 (Plasmid A, His6 and Flag tags), VL joined to kappa CL (Plasmid C); also called APFF S28I
B5: Fab VH1-46_IGHD6-6*01_IGHJ1*01 S102A/S103P/S104F/H111F (APFF) & L6_IGKJ1*01 S28L (Fab, V domains shown)
VH: B1 VH
VL: B1 VL with A28L
notes: Fab expressed in E. coli: VH joined to CH1 (Plasmid A, His6 and Flag tags), VL joined to kappa CL (Plasmid C); also called APFF S28L
B6: Fab VH1-46_IGHD6-6*01_IGHJ1*01 S102A/S103P/S104F/H111F (APFF) & L6_IGKJ1*01 S28M (Fab, V domains shown)
VH: B1 VH
VL: B1 VL with A28M
notes: Fab expressed in E. coli: VH joined to CH1 (Plasmid A, His6 and Flag tags), VL joined to kappa CL (Plasmid C); also called APFF S28M
B7: Fab VH1-46_IGHD6-6*01_IGHJ1*01 S102A/S103P/S104F/H111F (APFF) & L6_IGKJ1*01 S28N (Fab, V domains shown)
VH: B1 VH
VL: B1 VL with A28N
notes: Fab expressed in E. coli: VH joined to CH1 (Plasmid A, His6 and Flag tags), VL joined to kappa CL (Plasmid C); also called APFF S28N
B8: Fab VH1-46_IGHD6-6*01_IGHJ1*01 S102A/S103P/S104F/H111F (APFF) & L6_IGKJ1*01 S28P (Fab, V domains shown)
VH: B1 VH
VL: B1 VL with A28P
notes: Fab expressed in E. coli: VH joined to CH1 (Plasmid A, His6 and Flag tags), VL joined to kappa CL (Plasmid C); also called APFF S28P
B9: Fab VH1-46_IGHD6-6*01_IGHJ1*01 S102A/S103P/S104F/H111F (APFF) & L6_IGKJ1*01 S28Q (Fab, V domains shown)
VH: B1 VH
VL: B1 VL with A28Q
notes: Fab expressed in E. coli: VH joined to CH1 (Plasmid A, His6 and Flag tags), VL joined to kappa CL (Plasmid C); also called APFF S28Q
B10: Fab VH1-46_IGHD6-6*01_IGHJ1*01 S102A/S103P/S104F/H111F (APFF) & L6_IGKJ1*01 S28R (Fab, V domains shown)
VH: B1 VH
VL: B1 VL with A28R
notes: Fab expressed in E. coli: VH joined to CH1 (Plasmid A, His6 and Flag tags), VL joined to kappa CL (Plasmid C); also called APFF S28R
B11: Fab VH1-46_IGHD6-6*01_IGHJ1*01 S102A/S103P/S104F/H111F (APFF) & L6_IGKJ1*01 S28T (Fab, V domains shown)
VH: B1 VH
VL: B1 VL with A28T
notes: Fab expressed in E. coli: VH joined to CH1 (Plasmid A, His6 and Flag tags), VL joined to kappa CL (Plasmid C); also called APFF S28T
B12: Fab VH1-46_IGHD6-6*01_IGHJ1*01 S102A/S103P/S104F/H111F (APFF) & L6_IGKJ1*01 S28W (Fab, V domains shown)
VH: B1 VH
VL: B1 VL with A28W
notes: Fab expressed in E. coli: VH joined to CH1 (Plasmid A, His6 and Flag tags), VL joined to kappa CL (Plasmid C); also called APFF S28W
B13: Fab VH1-46_IGHD6-6*01_IGHJ1*01 S102A/S103P/S104F/H111F (APFF) & L6_IGKJ1*01 S30A (Fab, V domains shown)
VH: B1 VH
VL: B1 VL with A28S, S30A
notes: Fab expressed in E. coli: VH joined to CH1 (Plasmid A, His6 and Flag tags), VL joined to kappa CL (Plasmid C); also called APFF S30A
B14: Fab VH1-46_IGHD6-6*01_IGHJ1*01 S102A/S103P/S104F/H111F (APFF) & L6_IGKJ1*01 S30C (Fab, V domains shown)
VH: B1 VH
VL: B1 VL with A28S, S30C
notes: Fab expressed in E. coli: VH joined to CH1 (Plasmid A, His6 and Flag tags), VL joined to kappa CL (Plasmid C); also called APFF S30C
B15: Fab VH1-46_IGHD6-6*01_IGHJ1*01 S102A/S103P/S104F/H111F (APFF) & L6_IGKJ1*01 S30D (Fab, V domains shown)
VH: B1 VH
VL: B1 VL with A28S, S30D
notes: Fab expressed in E. coli: VH joined to CH1 (Plasmid A, His6 and Flag tags), VL joined to kappa CL (Plasmid C); also called APFF S30D
B16: Fab VH1-46_IGHD6-6*01_IGHJ1*01 S102A/S103P/S104F/H111F (APFF) & L6_IGKJ1*01 S30G (Fab, V domains shown)
VH: B1 VH
VL: B1 VL with A28S, S30G
notes: Fab expressed in E. coli: VH joined to CH1 (Plasmid A, His6 and Flag tags), VL joined to kappa CL (Plasmid C); also called APFF S30G
B17: Fab VH1-46_IGHD6-6*01_IGHJ1*01 S102A/S103P/S104F/H111F (APFF) & L6_IGKJ1*01 S30L (Fab, V domains shown)
VH: B1 VH
VL: B1 VL with A28S, S30L
notes: Fab expressed in E. coli: VH joined to CH1 (Plasmid A, His6 and Flag tags), VL joined to kappa CL (Plasmid C); also called APFF S30L
B18: Fab VH1-46_IGHD6-6*01_IGHJ1*01 S102A/S103P/S104F/H111F (APFF) & L6_IGKJ1*01 S30P (Fab, V domains shown)
VH: B1 VH
VL: B1 VL with A28S, S30P
notes: Fab expressed in E. coli: VH joined to CH1 (Plasmid A, His6 and Flag tags), VL joined to kappa CL (Plasmid C); also called APFF S30P
B19: Fab VH1-46_IGHD6-6*01_IGHJ1*01 S102A/S103P/S104F/H111F (APFF) & L6_IGKJ1*01 S30Q (Fab, V domains shown)
VH: B1 VH
VL: B1 VL with A28S, S30Q
notes: Fab expressed in E. coli: VH joined to CH1 (Plasmid A, His6 and Flag tags), VL joined to kappa CL (Plasmid C); also called APFF S30Q
B20: Fab VH1-46_IGHD6-6*01_IGHJ1*01 S102A/S103P/S104F/H111F (APFF) & L6_IGKJ1*01 S30R (Fab, V domains shown)
VH: B1 VH
VL: B1 VL with A28S, S30R
notes: Fab expressed in E. coli: VH joined to CH1 (Plasmid A, His6 and Flag tags), VL joined to kappa CL (Plasmid C); also called APFF S30R
B21: Fab VH1-46_IGHD6-6*01_IGHJ1*01 S102A/S103P/S104F/H111F (APFF) & L6_IGKJ1*01 S30T (Fab, V domains shown)
VH: B1 VH
VL: B1 VL with A28S, S30T
notes: Fab expressed in E. coli: VH joined to CH1 (Plasmid A, His6 and Flag tags), VL joined to kappa CL (Plasmid C); also called APFF S30T

The binders below were run against T1, Recombinant Human DLL4 (R&D Systems Cat#1506-D4/CF) (human, UniProt Q9NR61 27-524) (assay: ECL multispot (MSD) binding assay, DLL4 spotted on plate, purified Fab in solution; Fab concentration not given).
T1 construct: Bought recombinant protein; also called delta-like protein 4; rHuman DLL4
B1 was tested, and the “ECL signal” value was 157000.
In the case of B2, the “ECL signal” value is reported as 184000.
In the case of B3, the “ECL signal” value is reported as 209000.
In the case of B4, the “ECL signal” value is reported as 106000.
B5 was tested, and the “ECL signal” value was 72300.
B6 was tested, and the “ECL signal” value was 108000.
B7 was tested, and the “ECL signal” value was 204000.
B8 was tested, and the “ECL signal” value was 178000.
With B9 the “ECL signal” value was 133000.
With B10 the “ECL signal” value was 110000.
In the case of B11, the “ECL signal” value is reported as 159000.
B12 was tested, and the “ECL signal” value was 165000.
With B13 the “ECL signal” value was 184000.
With B14 the “ECL signal” value was 129000.
With B15 the “ECL signal” value was 225000.
In the case of B16, the “ECL signal” value is reported as 180000.
With B17 the “ECL signal” value was 199000.
With B18 the “ECL signal” value was 1140.
B19 was tested, and the “ECL signal” value was 203000.
In the case of B20, the “ECL signal” value is reported as 146000.
With B21 the “ECL signal” value was 122000.

What follows are binders tested against T1, Recombinant Human DLL4 (R&D Systems …) (assay: ECL multispot (MSD) binding assay, DLL4 signal over blank spot; Fab concentration not given).
Binder B1 has a Signal/Blank of 472.
For B2, the Signal/Blank was 439.
With B3 the Signal/Blank was 609.
B4 was tested, and the Signal/Blank was 309.
B5 gave a Signal/Blank of 220.
Binder B6 has a Signal/Blank of 336.
B7 showed a Signal/Blank of 778.
B8 showed a Signal/Blank of 454.
With B9 the Signal/Blank was 378.
In the case of B10, the Signal/Blank is reported as 246.
Binder B11 has a Signal/Blank of 522.
Work on B12 yielded a Signal/Blank of 545.
B13 showed a Signal/Blank of 516.
Binder B14 has a Signal/Blank of 141.
In the case of B15, the Signal/Blank is reported as 568.
B16 gave a Signal/Blank of 664.
In the case of B17, the Signal/Blank is reported as 524.
With B18 the Signal/Blank was 4.4.
With B19 the Signal/Blank was 1020.
With B20 the Signal/Blank was 350.
B21 was tested, and the Signal/Blank was 300.
